Source: US20200399389A1 (PHANES THERAPEUTICS, published 2020)
Substitutions are numbered along the chain they refer to. Values belong to the binder of their own block, whether it stands above or below them.

How the values were obtained:
[1] = biological target: T1, HIS-tagged human CD73 (huCD73-HIS) (human, UniProt P21589 27-547); assay: cell-based or functional assay
T1 sequence: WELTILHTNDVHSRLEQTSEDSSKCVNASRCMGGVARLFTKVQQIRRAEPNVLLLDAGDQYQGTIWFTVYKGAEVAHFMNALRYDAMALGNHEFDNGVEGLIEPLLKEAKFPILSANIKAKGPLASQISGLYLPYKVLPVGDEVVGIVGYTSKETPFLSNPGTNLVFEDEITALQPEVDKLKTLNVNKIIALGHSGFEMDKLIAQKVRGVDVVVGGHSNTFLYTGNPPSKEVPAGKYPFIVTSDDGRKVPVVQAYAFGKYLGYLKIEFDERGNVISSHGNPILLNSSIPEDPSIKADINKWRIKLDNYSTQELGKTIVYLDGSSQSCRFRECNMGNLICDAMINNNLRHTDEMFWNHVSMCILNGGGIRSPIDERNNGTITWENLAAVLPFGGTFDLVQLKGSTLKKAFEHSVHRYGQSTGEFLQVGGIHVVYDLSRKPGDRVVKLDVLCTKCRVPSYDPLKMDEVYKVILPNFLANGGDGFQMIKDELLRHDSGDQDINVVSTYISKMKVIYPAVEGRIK

[2] = biological target: T2, human CD73 expressed on the surface of cells (human, UniProt P21589 27-549); assay: cell-based or functional assay
T2 sequence: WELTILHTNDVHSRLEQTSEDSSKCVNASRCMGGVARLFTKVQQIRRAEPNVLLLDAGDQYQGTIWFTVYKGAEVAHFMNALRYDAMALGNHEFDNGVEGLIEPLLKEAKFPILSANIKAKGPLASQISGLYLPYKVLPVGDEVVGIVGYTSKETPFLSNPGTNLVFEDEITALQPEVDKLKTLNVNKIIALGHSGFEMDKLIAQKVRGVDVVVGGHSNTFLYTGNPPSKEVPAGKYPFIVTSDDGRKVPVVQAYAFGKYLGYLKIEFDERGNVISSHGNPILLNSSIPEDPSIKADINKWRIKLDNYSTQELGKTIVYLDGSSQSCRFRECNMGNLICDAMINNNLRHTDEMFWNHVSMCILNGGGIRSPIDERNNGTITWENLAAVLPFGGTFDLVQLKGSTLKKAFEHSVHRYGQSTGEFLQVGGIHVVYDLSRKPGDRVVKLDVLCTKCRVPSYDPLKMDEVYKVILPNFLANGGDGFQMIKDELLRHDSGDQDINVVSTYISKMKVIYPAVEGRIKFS

B1: 60A9-H1L1 (antibody, V domains shown)
VH: EVQLVESGGGLVQPGQSLKLSCKASGYAFSSYWMNWVRQAPGKGLEWMGQIYPGDGDTYYNPSVKGRFTISADTSKNTAYLQLNNLRAEDTAVYYCAREAIYYGNYVFTYWGQGTLVTVSS
VL: DIQMTQSPSLLSASLGDRVTITCKSSQSLLNSSNQKNYLAWYQQKPGQSPKLLIYFASTRDSGVPDRFSGSGSGTDFTLTISSLEPEDFATYYCQQHYSTPLTFGGGTKLEIK
IC50 (nM), huCD73 enzymatic assay in solution [1]: 3.34 nM

B3: 60A9-H2L1 (antibody, V domains shown)
VH: B1 VH with Q16G, K19R, M48V, A79L, L83M, N85S
VL: B1 VL
IC50 (nM), huCD73 enzymatic assay in solution [1]: 4.13 nM

B5: 60A9-H5L2 (antibody, V domains shown)
VH: B1 VH with R38K, A40R, M48I, N61S, P62G, S63K, V64F, F68A, I70L, T74K
VL: B1 VL with Q3V, L10S
IC50 (nM), cell-based CD73 activity assay (A375 cells) [2]: 57.3 nM

B6: 60A9-H2L4 (antibody, V domains shown)
VH: B1 VH with Q16G, K19R, M48V, A79L, L83M, N85S
VL: B1 VL with Q3V, T22S, I54V, Y93F, G106A
IC50 (nM), cell-based CD73 activity assay (A375 cells) [2]: 46 nM

B7: 60A9-H3L4 (antibody, V domains shown)
VH: B1 VH with M48I, F68A, I70L, T74K
VL: B1 VL with Q3V, T22S, I54V, Y93F, G106A
IC50 (nM), cell-based CD73 activity assay (A375 cells) [2]: 134 nM

B10: 60A9-H3L1 (antibody, V domains shown)
VH: B1 VH with M48I, F68A, I70L, T74K
VL: B1 VL
IC50 (nM), huCD73 enzymatic assay in solution [1]: 2.94 nM

B11: 60A9-H2L3 (antibody, V domains shown)
VH: B1 VH with Q16G, K19R, M48V, A79L, L83M, N85S
VL: B1 VL with I54V
IC50 (nM), huCD73 enzymatic assay in solution [1]: 4.57 nM

B12: 60A9-H4L1 (antibody, V domains shown)
VH: B1 VH with M48I, N61S, P62G, F68A, I70L, T74K
VL: B1 VL
IC50 (nM), huCD73 enzymatic assay in solution [1]: 3.1 nM

B13: 60A9-H5L3 (antibody, V domains shown)
VH: B1 VH with R38K, A40R, M48I, N61S, P62G, S63K, V64F, F68A, I70L, T74K
VL: B1 VL with I54V
IC50 (nM), cell-based CD73 activity assay (A375 cells) [2]: 36.4 nM

B15: 60A9-H4L3 (antibody, V domains shown)
VH: B1 VH with M48I, N61S, P62G, F68A, I70L, T74K
VL: B1 VL with I54V
IC50 (nM), huCD73 enzymatic assay in solution [1]: 2.74 nM

B16: 60A9-H4L2 (antibody, V domains shown)
VH: B1 VH with M48I, N61S, P62G, F68A, I70L, T74K
VL: B1 VL with Q3V, L10S
IC50 (nM), huCD73 enzymatic assay in solution [1]: 4.97 nM

B18: 60A9-H1L3 (antibody, V domains shown)
VH: B1 VH
VL: B1 VL with I54V
IC50 (nM), huCD73 enzymatic assay in solution [1]: 4.96 nM

B19: 60A9-H2L2 (antibody, V domains shown)
VH: B1 VH with Q16G, K19R, M48V, A79L, L83M, N85S
VL: B1 VL with Q3V, L10S
IC50 (nM), huCD73 enzymatic assay in solution [1]: 11.2 nM

B20: 39G8-H1L3 (antibody, V domains shown)
VH: QVQLVQSGAEVKKPGASVKVSCKASGYTFTSYWMHWVRQAPGQGLEWIGEIDPSGGYTNYAQKFQGRSTLTVDKSISTAYMELSRLRSDDTAVYYCARNYYYGSSGTMDYWGQGTLVTVSS
VL: DIVMTQSPDSLAVSLGERATMSCKSSQSLLNSSNQKNYLAWYQQKPGQPPKLLVYFASTRESGVPDRFSGSGSGTDFTLTISSLQAEDVAVYFCQQHYSTPYTFGGGTKVEIK
IC50 (nM), cell-based CD73 activity assay (A375 cells) [2]: 49.6 nM

B22: 39G8-H2L3 (antibody, V domains shown)
VH: B20 VH with K74T
VL: B20 VL
IC50 (nM), cell-based CD73 activity assay (A375 cells) [2]: 66.3 nM

Other lines, results leading:

IC50 (nM), huCD73 enzymatic assay in solution [1]: 6.17 nM
B2: 60A9-H1L2 (antibody, V domains shown)
VH: B1 VH
VL: B1 VL with Q3V, L10S

IC50 (nM), cell-based CD73 activity assay (A375 cells) [2]: 61 nM
B4: 60A9-H5L1 (antibody, V domains shown)
VH: B1 VH with R38K, A40R, M48I, N61S, P62G, S63K, V64F, F68A, I70L, T74K
VL: B1 VL

IC50 (nM), cell-based CD73 activity assay (A375 cells) [2]: 30.1 nM
B8: 60A9-H5L4 (antibody, V domains shown)
VH: B1 VH with R38K, A40R, M48I, N61S, P62G, S63K, V64F, F68A, I70L, T74K
VL: B1 VL with Q3V, T22S, I54V, Y93F, G106A

IC50 (nM), huCD73 enzymatic assay in solution [1]: 2.09 nM
IC50 (nM), cell-based CD73 activity assay (A375 cells) [2]: 65.7 nM
B9: 60A9-H3L3 (antibody, V domains shown)
VH: B1 VH with M48I, F68A, I70L, T74K
VL: B1 VL with I54V

IC50 (nM), cell-based CD73 activity assay (A375 cells) [2]: 135 nM
B14: 60A9-H4L4 (antibody, V domains shown)
VH: B1 VH with M48I, N61S, P62G, F68A, I70L, T74K
VL: B1 VL with Q3V, T22S, I54V, Y93F, G106A

IC50 (nM), huCD73 enzymatic assay in solution [1]: 4.97 nM
B17: 60A9-H3L2 (antibody, V domains shown)
VH: B1 VH with M48I, F68A, I70L, T74K
VL: B1 VL with Q3V, L10S

IC50 (nM), cell-based CD73 activity assay (A375 cells) [2]: 56.1 nM
B21: 39G8-H3L3 (antibody, V domains shown)
VH: B20 VH with A61N
VL: B20 VL
